# Assay results published in US20140045756A1.
# Columns and labels:
# [1] = biological target: TNFR2 immobilized on the SPR sensor chip (channel 1) (UniProt P20333); test: SPR (FastStep kinetic assay); right panel is TNFR2; key printed as TNFR1; settings: designed binder
# [2] = biological target: TNFR1 immobilized on the SPR sensor chip (channel 3) (UniProt P19438); test: SPR (FastStep kinetic assay)
# [3] = biological target: TNFR2 immobilized on the SPR sensor chip (channel 1) (UniProt P20333); test: SPR (FastStep kinetic assay); settings: ligand
# Recombinant human PGRN (rhPGRN), sequence (P28799 18-593): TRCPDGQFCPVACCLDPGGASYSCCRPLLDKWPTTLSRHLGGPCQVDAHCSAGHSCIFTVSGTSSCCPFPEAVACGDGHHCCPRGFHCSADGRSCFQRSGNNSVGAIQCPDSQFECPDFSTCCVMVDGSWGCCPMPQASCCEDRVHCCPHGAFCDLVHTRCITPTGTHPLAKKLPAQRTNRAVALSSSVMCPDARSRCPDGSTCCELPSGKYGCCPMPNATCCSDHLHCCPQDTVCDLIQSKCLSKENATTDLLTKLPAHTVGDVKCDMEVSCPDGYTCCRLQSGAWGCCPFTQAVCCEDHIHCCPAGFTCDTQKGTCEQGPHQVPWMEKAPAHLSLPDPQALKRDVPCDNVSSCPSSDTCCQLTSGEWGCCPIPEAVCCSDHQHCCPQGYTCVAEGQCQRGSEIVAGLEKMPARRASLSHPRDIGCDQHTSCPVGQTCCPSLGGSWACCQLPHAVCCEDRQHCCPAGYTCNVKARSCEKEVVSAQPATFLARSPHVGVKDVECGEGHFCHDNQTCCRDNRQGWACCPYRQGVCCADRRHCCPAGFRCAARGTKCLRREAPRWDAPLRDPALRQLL
# TNFR1 immobilized on the SPR sensor chip (channel 3), sequence (P19438 30-211): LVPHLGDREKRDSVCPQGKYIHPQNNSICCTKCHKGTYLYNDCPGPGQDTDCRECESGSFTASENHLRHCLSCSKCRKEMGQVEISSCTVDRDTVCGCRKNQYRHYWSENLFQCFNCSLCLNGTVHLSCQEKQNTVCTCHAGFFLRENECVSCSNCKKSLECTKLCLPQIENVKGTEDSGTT
Substance,Kd [1] [nM],Kd ([2]; designed binder) [nM],Kd ([2]; ligand) [nM],Kd [3] [nM]
"Atsttrin-α1 (Antagonist of TNF/TNFR Signaling via Targeting to TNF Receptors-α1), recombinant",90.2,142,,
Recombinant human PGRN (rhPGRN) (from UniProt P28799 18-593),,,1.77,1.52
